± gives the uncertainty stated by the source.

This series can be described thus: amyloid nucleation score (Sup35N fusion, yeast selection) (log enrichment); library NNK2; higher = more nucleation; inactive = no reads after selection. In outline:
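Psi-negative yeast expressed Sup35N fused to peptides of 20 random codons. They were induced 24 hours with 100 μM copper sulfate, grown 7 days at 30°C without adenine and uracil, and their plasmid inserts from input and output were Illumina-sequenced. The nucleation score is the DiMSum log enrichment of output over input reads, centred on the mode score of non-aggregating sequences. Sequences with under 100 input reads were excluded.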
PIARN returned an amyloid nucleation score of -0.47 ± 1.
Next, PIGINSVKVSNYINLRYCAC: 5.736 ± 0.043; PIGRSCIYHKWE: 1.98 ± 0.18; PILADGLCIFNR: -0.47 ± 0.34.
Next, PIRLQIWVWPVPKR: 0.8 ± 0.55; PIRWVGHNKGFQGL: -1.22 ± 0.75.
Next, PIVLAK: -0.672 ± 0.79; PIWFQFGVANTSGLNGVLTS: 0.612 ± 0.34; PIYCNQRVDRALTMFTQFRA: -0.121 ± 1.1.
PKLPLAESR: the amyloid nucleation score was -0.11 ± 0.53.
For the substance PKMRFFPIARSSIRERNVWV, the amyloid nucleation score was -1.31 ± 0.34.
Under PKNMWGSNNLRGMPVSDVKS stands 0.032 ± 0.34; under PLCFLVMGHGTRCVCRWNTG, -0.464 ± 0.63; under PLLGLRG, 0.102 ± 1.1.
Under PLLRSKKKSALYPA stands -0.021 ± 0.63; under PLNCLPGNCSAQPRFGAASG, 0.505 ± 0.39; under PLVEDLRSIYLVRCSAYLQR, 0.593 ± 0.33.
Substance PLVLKCRCLI displayed an amyloid nucleation score of -1.32 ± 1.1.
Next, PLWPSNSD: -0.331 ± 0.54.
Next, PMAPSCLYRIIIMN: 1.51 ± 0.26; PMISKVCHILKRVEPSWGMR: -0.199 ± 1.1.
In the case of PNALQGSRDVCTLKRLASEA, the amyloid nucleation score was found to be 0.238 ± 0.57.
Next, PNDAN: 0.043 ± 0.28; PQHFGEPTLIMVGKGLGCLR: 0.178 ± 0.77; PQLHSLCT: -0.214 ± 1.
Next, PRAHTVNV: -0.249 ± 1.1; PRCLDLLDIFV: 0.072 ± 1.1; PREKLYITMNMADIGSSRHP: 4.86 ± 0.051.
Next, PRRECVVRSAVPWYRRSRE: 1.71 ± 0.35; PSDMHSNNLA: -0.774 ± 0.76.
As for PSGNQELLGTMTWIRKVTQS, the amyloid nucleation score is -0.86 ± 0.34.
For the substance PSIWSLDGSYFCSADENCKR, the amyloid nucleation score result was “inactive”.
Under PSLWFLCRYGVTSIGLVFTL stands -0.159 ± 1.1; under PSNNIFSLLFLVLKHFIDMR, “inactive”; under PSSISLTVYKSRMGEYWCKG, “inactive”.
Under PSSSVCNINCYSKRSDRSVV stands -0.09 ± 0.63; under PSVACGERCKPMCKVTLSPC, 1.42 ± 0.33.
In turn, PSVTRVLSLVILEAPNA displayed an amyloid nucleation score of 2.76 ± 0.14.
Under PSWCS stands 0.33 ± 0.17; under PTGGRLYSV, 0.012 ± 1; under PTIMLTGR, 0.208 ± 0.65.
Next, PTSCSSRN: -0.055 ± 1.1; PVGVDLWCGSQSNSLNAFLH: “inactive”.
Under PVIIAW stands 0.14 ± 1; under PVRLPSMWNVDRAFWPDYCQ, “inactive”.
For the substance PVRSMNPLRRLNESSRFDEE, the amyloid nucleation score came to 1.48 ± 0.61.
Next, PWAMDQVTLSMVLPFMWPRL: 0.456 ± 0.39; PWDVGRRR: 0.97 ± 0.55.
PWETRSNA displayed an amyloid nucleation score of -0.012 ± 0.46.
Next, PWHVYFDRNGWPYGSQRVQG: 0.718 ± 0.57; PWNMACFS: “inactive”; PYATNSRRNRNVYLRPHCQI: 1.77 ± 0.12.
Next, PYIWYPISECRGSSSFETYA: 0.29 ± 0.74.
Next, PYNLVGLGLFSPAGF: -0.849 ± 0.61; PYSVMTFEIT: 0.486 ± 0.33.
PYTSS showed an amyloid nucleation score of -0.107 ± 0.41.
Next, PYVMCLNDYPSSKDCFQIVS: -0.619 ± 0.27; QARYFFTAARYITVLWKSTF: -0.487 ± 0.56; QCFSLGGWVCFVIDVC: 9.476 ± 0.079.
Under QCLTSRLGSKIVMCKSLDIS stands 0.009 ± 0.23; under QCVQRHALRVG, 4.31 ± 0.12; under QDRGHSVL, “inactive”.
Next, QDSFRGLGYFWGPQHETVVM: -1.23 ± 0.48; QDTFYEWCKNVHVLHTRFGV: 0.905 ± 0.47; QDYTDHPGIIFSFRGCSRDT: “inactive”.
As to QEQDKSRELKCGGKLYVYEG, the amyloid nucleation score amounted to 1.04 ± 0.68.
Under QESWHNYESS stands -0.805 ± 0.64.
Under QGEEVGWFRFGRKSGAINMV stands 0.076 ± 0.36.
Take QGMNPLQSLDVKCYYL: the amyloid nucleation score entry was “inactive”.
Next, QHAFRVHFTVRRVSSFFVR: 5.96 ± 0.086.
Next, QHTKGHSPEWD: 1.47 ± 0.28; QHVGDSWMSSVNLGVLRVRL: 0.055 ± 0.35.
QHWRLNWNEDFFMYWYGFLT came in with an amyloid nucleation score of -0.655 ± 0.41.
Under QIFTKRVRTNLPFQFSNYVG stands 0.479 ± 0.74; under QIGNVFNRY, -0.283 ± 1; under QLFTWILVAPKLPCWF, 6.36 ± 0.086.
Under QLFVMPCMNSFEGRKRNCFS stands -0.836 ± 0.48.
Next, QLIIMCVMGEQTICTVCHTG: 7.153 ± 0.042.
On to QLPAHFFGLFCLFP, for which the amyloid nucleation score is -1.41 ± 0.73.
Next, QLQFMRADFFLNKVKLRGET: “inactive”; QMFVRCSQ: 0.705 ± 0.66; QMQPTGLRQNLSSPWPFVGE: 0.993 ± 0.29.
In turn, QNGRMSTHTDFGGM showed an amyloid nucleation score of 0.39 ± 0.38.
QRDCSYEYLTTKLTAELRGS gave an amyloid nucleation score of 0.216 ± 0.55.
Next, QSMTTQNLGVWEELCKAFLI: “inactive”.
Take QSNVCKIGSGVDESGNNMTL: the amyloid nucleation score is 0.532 ± 0.37.
Under QSPSL stands -0.381 ± 0.79.
Next, QSRSRIGFGQCGRFGTAWWV: 0.605 ± 0.45; QSRWSFKTYYSREKW: -0.278 ± 0.39.
QSTHMNT gave an amyloid nucleation score of -0.364 ± 0.48.
Next, QSVLSLSGLYGHDLREGLL: -0.387 ± 0.49; QSVQFRWRLCLAGFVGTGWR: 3.06 ± 0.089; QSYVLMC: -0.233 ± 0.48.
Under QSYWSWLKKVSRFVYPHTRS stands 0.291 ± 0.26; under QTCLHMSIGWVSP, 4.38 ± 0.082.
The substance QTGQGYIVQGTVNSMKGCFR gave an amyloid nucleation score of -0.038 ± 0.65.
Under QTNYEAHFDRVINYAFVHLF stands -0.392 ± 0.79; under QTSLSTMMYLPCH, 0.7 ± 0.49; under QTTDNFIVKHALCNVA, -0.622 ± 0.34.
Next, QTTMKVSFSFLMRGGNPQVM: 4.56 ± 0.11; QVFFFLITSRVRSVRFSQEF: 1.62 ± 0.25; QVLFVRFRRYVYQRMWACWG: 0.405 ± 0.74.
Next, QVLLFQWLSGDYQMIKMMRW: -0.207 ± 0.45; QVLLGTLHKVY: 1.4 ± 0.49; QVTSCGSWWSRSIWYEVVFS: -0.622 ± 1.1.
